doi:10.1101/243402v1

Substrate: O=P(O)(O)OC[C@@H](O)[C@@H](O)[C@H](O)[C@H](O)CO
Experiment: purified protein
Conditions: 100 mM Tris-HCl

B1: SjaM1Pase2 (Saccharina japonica) (protein)
chain: MEQATANKDISILFDFDGTIGDTETPAMEVAFWELAPYLPDTTPDKLDNLMPEFVRDNAGKAFEFMVETVDEERKAAGMDSVEEMFAAKSEPQNMLDAVDPHRKKFGLKSFAELRAPEGGEAATLLIQQKTETVDALSKIAQPCNGVREVLAALTAATVPFCISTTSPKPRVPASITACGLDEYFPPDKVHSGESDFDPPRFKPNPSVYLKAAETEGKEPVNCIAVEDSGSGVGSASNAGVGLTVGYVGASHIPEYKKDTHAEMLMAGGRAENGKGAEIVISDMKDLLKIIDFFAGAKTAGKLAPFDFPTAMVASMQQPVWVHGKKA
Km: 20 µM
